Experimental data: PMC6707828 (Biochemistry, 2018)

Assays:
SufS (alone) = SufS (alone) (Escherichia coli, UniProt P77444); conditions: covalent (Schiff base with K226)
[1] = biological target: SufS (second binding site) (Escherichia coli) (UniProt P77444); assay: ITC; conditions: cited from earlier work
[2] = biological target: SufS (first binding site) (Escherichia coli) (UniProt P77444); assay: ITC; conditions: cited from earlier work
SEC = biological target: the molecule itself; assay: SEC

## Cc1ncc(COP(=O)(O)O)c(C=O)c1O [PLP]
SufS (alone)
  UV-Vis of PLP liberated from purified enzyme: UV-Vis spectroscopic analysis of PLP liberated from wild-type and the variant enzymes

## SufE (from UniProt P76194)
[1]
  Kd: 300 µM
[2]
  Kd: 4 µM

B1: SufS E96A (enzyme, E. coli)
chain: MIFSVDKVRADFPVLSREVNGLPLAYLDSAASAQKPSQVIDAEAEFYRHGYAAVHRGIHTLSAQATEKMENVRKRASLFINARSAEELVFVRGTTAGINLVANSWGNSNVRAGDNIIISQMEHHANIVPWQMLCARVGAELRVIPLNPDGTLQLETLPTLFDEKTRLLAITHVSNVLGTENPLAEMITLAHQHGAKVLVDGAQAVMHHPVDVQALDCDFYVFSGHKLYGPTGIGILYVKEALLQEMPPWEGGGSMIATVSLSEGTTWTKAPWRFEAGTPNTGGIIGLGAALEYVSALGLNNIAEYEQNLMHYALSQLESVPDLTLYGPQNRLGVIAFNLGKHHAYDVGSFLDNYGIAVRTGHHCAMPLMAYYNVPAMCRASLAMYNTHEEVDRLVTGLQRIHRLLG
modifications: PLP cofactor (89-97% PLP incorporation)
SEC
  stoichiometry N: 2

B2: SufS E250A (enzyme, E. coli)
chain: MIFSVDKVRADFPVLSREVNGLPLAYLDSAASAQKPSQVIDAEAEFYRHGYAAVHRGIHTLSAQATEKMENVRKRASLFINARSAEELVFVRGTTEGINLVANSWGNSNVRAGDNIIISQMEHHANIVPWQMLCARVGAELRVIPLNPDGTLQLETLPTLFDEKTRLLAITHVSNVLGTENPLAEMITLAHQHGAKVLVDGAQAVMHHPVDVQALDCDFYVFSGHKLYGPTGIGILYVKEALLQEMPPWAGGGSMIATVSLSEGTTWTKAPWRFEAGTPNTGGIIGLGAALEYVSALGLNNIAEYEQNLMHYALSQLESVPDLTLYGPQNRLGVIAFNLGKHHAYDVGSFLDNYGIAVRTGHHCAMPLMAYYNVPAMCRASLAMYNTHEEVDRLVTGLQRIHRLLG
modifications: PLP cofactor (89-97% PLP incorporation)
SEC
  stoichiometry N: 2
